Earlier results on two substances are cited in paper PMC10901556, “Conservation of Affinity Rather Than Sequence Underlies a Dynamic Evolution of the Motif-Mediated p53/MDM2 Interaction in Ray-Finned Fishes” (Molecular Biology and Evolution, 2024).

As usually defined, the Kd is a measure of binding affinity in units of concentration.

One data set addresses T1, MDM2D.rerio SWIB domain (Danio rerio, UniProt O42354).
T1 construct: NusA-TEV-His6-PreScission (N, cleaved yes); made in house; host or cells: Escherichia coli BL21 (DE3)
T1 sequence (O42354 with tags, fused parts or gaps): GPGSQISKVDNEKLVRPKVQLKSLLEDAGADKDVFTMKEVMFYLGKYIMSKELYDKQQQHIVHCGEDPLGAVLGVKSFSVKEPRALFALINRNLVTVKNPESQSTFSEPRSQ
As to conditions: ref Mihalič et al. 2023; cited from earlier work. The source says: Abstract The transcription factor and cell cycle regulator p53 is marked for degradation by the ubiquitin ligase MDM2. The interaction between these 2 proteins is mediated by a conserved binding motif in the disordered p53 transactivation domain (p53TAD) and the folded SWIB domain in MDM2. […] The interaction between the proteins is mediated by a conserved binding motif in the intrinsically disordered N-terminal transactivation domain (TAD) of p53 and a SWIB domain in MDM2 (Fig. 1). The interaction leads to MDM2-catalyzed ubiquitination and proteasomal degradation of p53. Phosphorylation of p53TAD increases affinity for the general transcriptional coactivators CBP/p300 a ...

The target in the next data set is human MDM2. As to conditions: ref Åberg et al. (2018); read-out: KD (μM) p53TAD^full-length native (converted); cited from earlier work. The source says: Therefore, we expressed, purified, and subjected a longer p53TAD construct from D. rerio to binding experiments (Fig. 4a).

On to “p53TADD.rerio (residues 15 to 26): peptide corresponding to the conserved binding motif in p53TADD.rerio, earlier study (KNLIIQPPGGGS; UniProt P79734 15-26, looked up, fragment)”, for which, in the data set with MDM2D.rerio SWIB domain, the “affinity in binding assay” value is “no affinity”.

As to “H.sap p53 full: expressed full-length human p53 transactivation domain”, on human MDM2, the Kd is 0.1 µM.
